The assay has as its target vitronectin (UniProt P04004).
Chain of UniProt P04004 (P04004 20-478): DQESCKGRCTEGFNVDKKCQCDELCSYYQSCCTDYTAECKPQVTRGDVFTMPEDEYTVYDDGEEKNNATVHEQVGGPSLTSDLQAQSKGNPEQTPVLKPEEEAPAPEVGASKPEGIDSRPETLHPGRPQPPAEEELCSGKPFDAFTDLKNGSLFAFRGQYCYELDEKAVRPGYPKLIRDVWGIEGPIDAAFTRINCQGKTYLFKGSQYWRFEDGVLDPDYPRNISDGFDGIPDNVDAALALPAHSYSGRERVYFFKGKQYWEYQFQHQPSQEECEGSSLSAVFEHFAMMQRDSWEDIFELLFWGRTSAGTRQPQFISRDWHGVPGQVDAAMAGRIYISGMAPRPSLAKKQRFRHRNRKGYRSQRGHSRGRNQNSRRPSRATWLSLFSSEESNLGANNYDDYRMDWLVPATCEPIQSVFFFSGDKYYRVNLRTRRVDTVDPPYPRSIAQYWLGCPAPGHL

In turn, “αvβ3 integrin (from UniProt P06756 31-1048; P05106 27-788) (receptor)” displayed a detachment of adherent WM266 cells from vitronectin-coated plates by the anti-αvβ3 antibody LM609 (10 µg/mL), 2 h of 50%.
